Series [1] concerns the target Lanmodulin from Hansschlegelia quercus (Hans-LanM), wild type (Hansschlegelia quercus). Nature of the series: ITC; dilutive additions of 300 uM apo protein into matched buffer (30 mM MOPS, 100 mM KCl, pH 7.0), 30 °C; Dimer Dissociation model; dimer to monomers. In general terms: In ITC the heat of successive injections is recorded.
Series [2] shares this target. Kind of series: ITC; dilutive additions of 150 uM or 540 uM protein with 2 equivalents of La(III) into matched buffer (30 mM MOPS, 100 mM KCl, pH 7.0), 30 °C; no change of heats seen, only an upper limit; dimer to monomers.
For series [3] the target is unchanged. Kind of series: SEC; analytical size-exclusion chromatography of Hans-LanM in the presence of three equivalents of La(III). A general note: SEC sorts molecules by how far they enter the pores of the column.
The target is the same in series [4]. Nature of the series: SEC-MALS; Hans-LanM pre-incubated with 3 equiv. La(III), Nd(III) or Gd(III); 1.2-1.5 mg/mL loaded; buffer B (30 mM MOPS, 100 mM KCl, 5% glycerol, pH 7.0).
The target is the same in series [5]. Kind of series: ITC; dilutive additions of 300 uM protein with 2 equivalents of Dy(III) into matched buffer (30 mM MOPS, 100 mM KCl, pH 7.0), 30 °C; Dimer Dissociation model; dimer to monomers.
Series [6] deals with the molecule itself. Nature of the series: SEC; analytical Superdex 75 column (24 mL); apo protein (590 uM, 100 uL) metalated with 3.0 equiv. Nd(III).
Series [7] concerns the molecule itself. Kind of series: SAXS; La(III)-bound protein from SEC-MALS fractions, 1.5 mg/mL; 30 mM MOPS, 100 mM KCl, 5% glycerol, pH 7.0, 22 C; Porod volume, OLIGOMER and CRYSOL analyses.
Series [8] concerns the molecule itself. Kind of series: SEC; analytical Superdex 75 column (24 mL); protein metalated with 3.0 equiv. La(III).
Series [9] deals with the molecule itself. Kind of series: SAXS; Nd(III)-bound protein from SEC-MALS fractions, 1.4 mg/mL; 30 mM MOPS, 100 mM KCl, 5% glycerol, pH 7.0, 22 C; Porod volume, OLIGOMER and CRYSOL analyses.

Data on two molecules can be found in PMC10232371, “Enhanced rare-earth separation with a metal-sensitive lanmodulin dimer” (Nature, 2023).

For orientation: Kd means the concentration at which binding is half-saturated. One may read the stoichiometry N as the number of molecules, sites or subunits per partner or assembly. In the case of “Lanmodulin from Hansschlegelia quercus (Hans-LanM), wild type (natural protein)”, the Kd in series [1] was 117 µM; in [2], < 0.4 µM; in series [5] it was 60 µM. Further, the stoichiometry N in [3] and in [4] was 2 each time.

B1: Hansschlegelia quercus lanmodulin (Hans-LanM), residues A24-K133 (natural protein)
chain: ASGADALKALNKDNDDSLEIAEVIHAGATTFTAINPDGDTTLESGETKGRLTEKDWARANKDGDQTLEMDEWLKILRTRFKRADANKDGKLTAAELDSKAGQGVLVMIMK
notes: lanmodulin (LanM) of Hansschlegelia quercus without its native 23-residue signal peptide; expressed with an N-terminal Met that is cleaved, so the first residue is A24; Metal-free (apo) or loaded with rare-earth(III) ions as named in each assay; expressed from pET-29b(+); also called wild-type Hans-LanM; source: E. coli, purified (SEC, dialysed against Chelex 100)
Regarding B1, the “stoichiometry N” value in [6], in [7], in series [8] and in [9] was 2 in each case.
